Experimental data published in patent US20190016785A1 (published 2019).

Tests used:
HBsAg ayw = HBsAg ayw (hepatitis B virus); assay: ELISA
HBsAg adr = assay: ELISA

B1: HBC34 (antibody, V domains shown)
VH: ELQLVESGGGWVQPGGSQRLSCAASGRIFRSFYMSWVRQAPGKGLEWVATINQDGSEKLYVDSVKGRFTISRDNAKNSLFLQMNNLRVEDTAVYYCAAWSGNSGGMDVWGQGTTVSVSS
VL: SYELTQPPSVSVSPGQTVSIPCSGDKLGNKNVCWFQHKPGQSPVLVIYEVKYRPSGIPERFSGSNSGNTATLTISGTQAMDEAAYFCQTWDSTTVVFGGGTRLTVL
EC50 (HBsAg ayw): 10 ng/mL
EC50 (HBsAg adr): 6 ng/mL
